In paper PMC8065591, “SPECT Imaging of SST2-Expressing Tumors with ^99mTc-Based Somatostatin Receptor Antagonists: The Role of Tetraamine, HYNIC, and Spacers” (Pharmaceuticals, 2021):
Where a SMILES comes first, the peptide text is derived from it. Bridges are numbered along the chain shown (N, C = ends). [ ]: non-standard residue; d: D form. The star is where a group is joined. dPhe(4-NHCONH2) = NC(=O)Nc1ccc(C[C@@H](N)C(=O)O)cc1; Dihydroorotyl(S) = O=C1C[C@@H](C(=O)*)NC(=O)N1; Phe(4-Cl) = N[C@@H](Cc1ccc(Cl)cc1)C(=O)O; Phe(4-NH2) = Nc1ccc(C[C@H](N)C(=O)O)cc1; HYNIC = NNc1ccc(C(=O)*)cn1; Ahx = NCCCCCC(=O)O

Assays:
[1] = type: physicochemical
Experimental: In general, all JR11-based radiotracers were more hydrophilic than the corresponding SS01-based radiotracers. […] [^99[…] was excluded from further studies. […] In a pre-lubricated Eppendorf tube, a pre-saturated mixture of 500 μL 1-octanol and 500 μL of phosphate-buffered saline (PBS) at pH 7.4 was added. An amount of 10 μL of 1 μM radiotracer solution was added to this mixture, followed by vortexing of the tube at room temperature for 15 min to reach equilibrium. Centrifugation for 15 min at 3000 rpm was performed for separation of the phases. Aliquots of 100 μL were removed from the octanol and from the PBS phase, and the activity measured in a γ-counter. The partition coefficient was calculated as the average log ratio value of the radioactivity in the organic fraction and PBS fraction.

HEK-SST2 tumors = system: HEK-SST2 tumors; design: species or system mice; conditions: mouse, in vivo
Experimental: The Veterinary Office (Department of Health) of the Cantonal Basel-Stadt approved the animal experiments (approval no. 30515) in accordance with the Swiss regulations for animal treatment. Female athymic nude-Foxn1nu/Foxn1+ mice (Envigo, The Netherlands), 4-6 weeks old, were injected subcutaneously with 10^7 HEK-SST2 cells in the right shoulder, freshly suspended in 100 μL sterile phosphate-buffered saline. The tumors were allowed to grow for 2-3 weeks. Mice bearing HEK-SST2 tumors were euthanized 1 or 4 h after intravenous injection of 4-6 MBq (200 pmol) of the ^99mTc-labeled conjugates and imaged supine, head first, using a SPECT/CT system dedicated to imaging small animals (NanoSPECT/CT^TM Bioscan Inc.). Topograms and helical CT scans of the whole mouse were first acquired using the following parameters: X-ray tube current: 177 μA, X-ray tube voltage 45 kVp, 90 s and 180 frames per rotation, pitch 1. The helical SPECT scan was then acquired from head to toe using multi-purpose pinhole collimators (APT1). The energy window width was 20%, centered symmetrically over the energy peak of ^99mTc at 140 keV. Twenty-four projections (200 s per projection) were used, allowing acquisition of at least 50 kilocounts/projection. […]

SST2 = conditions: cited from earlier work

Compound: C[C@@H](O)[C@@H]1NC(=O)[C@H](CCCCN)NC(=O)[C@@H](Cc2ccc(NC(N)=O)cc2)NC(=O)[C@H](Cc2ccc(NC(=O)[C@@H]3CC(=O)NC(=O)N3)cc2)NC(=O)[C@H](NC(=O)[C@H](Cc2ccc(Cl)cc2)NC(=O)CCCCCNC(=O)c2ccc(NN)nc2)CSSC[C@@H](C(=O)N[C@H](Cc2ccc(O)cc2)C(N)=O)NC1=O [[^99mTc]Tc-HYNIC-Ahx-JR11, metal not drawn] ({HYNIC-Ahx}-[Phe(4-Cl)][dC][Phe(4-NH2)](Dihydroorotyl(S))[dPhe(4-NHCONH2)]KTC[dY]-NH2; disulfide 2-7)
- Log D (pH = 7.4) [1]: −3.15 ± 0.06

Compound: C[C@@H](O)[C@@H]1NC(=O)[C@H](CCCCN)NC(=O)[C@@H](Cc2c[nH]c3ccccc23)NC(=O)[C@H](Cc2ccc(O)cc2)NC(=O)[C@H](NC(=O)[C@H](Cc2ccc(Cl)cc2)NC(=O)CCCCCNC(=O)c2ccc(NN)nc2)CSSC[C@@H](C(=O)N[C@H](Cc2ccc(O)cc2)C(N)=O)NC1=O [[^99mTc]Tc-HYNIC-Ahx-SS01, metal not drawn]
- Log D (pH = 7.4) [1]: −1.96 ± 0.06

Compound: C[C@@H](O)[C@@H]1NC(=O)[C@H](CCCCN)NC(=O)[C@@H](Cc2ccc(NC(N)=O)cc2)NC(=O)[C@H](Cc2ccc(NC(=O)[C@@H]3CC(=O)NC(=O)N3)cc2)NC(=O)[C@H](NC(=O)[C@H](Cc2ccc(Cl)cc2)NC(=O)c2ccc(NN)nc2)CSSC[C@@H](C(=O)N[C@H](Cc2ccc(O)cc2)C(N)=O)NC1=O [[^99mTc]Tc-HYNIC-JR11, metal not drawn] ({HYNIC}-[Phe(4-Cl)][dC][Phe(4-NH2)](Dihydroorotyl(S))[dPhe(4-NHCONH2)]KTC[dY]-NH2; disulfide 2-7)
- Log D (pH = 7.4) [1]: −2.88 ± 0.11

Compound: C[C@@H](O)[C@@H]1NC(=O)[C@H](CCCCN)NC(=O)[C@@H](Cc2c[nH]c3ccccc23)NC(=O)[C@H](Cc2ccc(O)cc2)NC(=O)[C@H](NC(=O)[C@H](Cc2ccc(Cl)cc2)NC(=O)CCOCCOCCOCCOCCNC(=O)c2ccc(NN)nc2)CSSC[C@@H](C(=O)N[C@H](Cc2ccc(O)cc2)C(N)=O)NC1=O [[^99mTc]Tc-HYNIC-PEG4-SS01, metal not drawn]
- Log D (pH = 7.4) [1]: −2.03 ± 0.13

Compound: C[C@@H](O)[C@@H]1NC(=O)[C@H](CCCCN)NC(=O)[C@@H](Cc2c[nH]c3ccccc23)NC(=O)[C@H](Cc2ccc(O)cc2)NC(=O)[C@H](NC(=O)[C@H](Cc2ccc(Cl)cc2)NC(=O)c2ccc(NN)nc2)CSSC[C@@H](C(=O)N[C@H](Cc2ccc(O)cc2)C(N)=O)NC1=O [[^99mTc]Tc-HYNIC-SS01, metal not drawn]
- Log D (pH = 7.4) [1]: −2.21 ± 0.07

Compound: C[C@@H](O)[C@@H]1NC(=O)[C@H](CCCCN)NC(=O)[C@@H](Cc2c[nH]c3ccccc23)NC(=O)[C@H](Cc2ccc(O)cc2)NC(=O)[C@@H](NC(=O)[C@@H](Cc2ccccc2)NC(=O)c2ccc(NN)nc2)CSSC[C@@H](C(=O)N[C@H](CO)[C@@H](C)O)NC1=O [[^99mTc]Tc-HYNIC-TOC, metal not drawn, reference compound]
- logD ([1]; pH 7.4): -2.77 ± 0.07

Compound: C[C@@H](O)[C@@H]1NC(=O)[C@H](CCCCN)NC(=O)[C@@H](Cc2c[nH]c3ccccc23)NC(=O)[C@H](Cc2ccc(O)cc2)NC(=O)[C@H](NC(=O)[C@H](Cc2ccc(Cl)cc2)NC(=O)CCNC(=O)c2ccc(NN)nc2)CSSC[C@@H](C(=O)N[C@H](Cc2ccc(O)cc2)C(N)=O)NC1=O [[^99mTc]Tc-HYNIC-β-Ala-SS01, metal not drawn]
- washout from the tumor on SPECT/CT images (in words) (HEK-SST2 tumors): very fast washout from the tumor
- Log D (pH = 7.4) [1]: −1.91 ± 0.19

Compound: Cpa-c(DCys-Aph(Hor)-DAph(Cbm)-Lys-Thr-Cys)-DTyr-NH2 [JR11]
- affinity for SST2 (in words) (SST2): high affinity
